Test results published in paper PMC9716016.

Substrate: N
Assay: cells, lysate or membranes
Conditions: labelled compound; (15NH4)2SO4 (60% 15N), 10 min; N-starved 3 d; qko background subtracted; whole-root uptake

B1: ScAMT2;1 (Saccharum hybrid cultivar SP80-3280) (protein)
chain: MAASGGAYAAQLPAVPEWLNKGDNAWQLTAATLVGIQSMPGLVVLYGSIVKKKWAVNSAFMALYAYASSLLVWVLVGFRMAFGERLLPFWGKAGVALSQGYLVRRASLSATAHGDTPRTEPLYPEATLVLFQFEFAAITLVLLAGSVLGRMNIKAWMAFTPLWLLFSYTVGAFSLWGGGFLYHWGVIDYSGGYVIHLSSGVAGFTAAYWVGPRLKSDRERFSPNNILLMIAGGGLLWMGWAGFNGGAPYAANIAASVAVLNTNVSAATSLLTWTCLDVIFFNKPSVIGAVQGMMTGLVCITPGAGLVQTWAAVIMGVFAGSVPWFTMMILHKKSALLMKVDDTLAVFHTHAVAGLLGGVLTGLLATPELLEIESPVPGLRGAFYGGGAQQVGKQLAGAAFVVAWNVAVTSLILFAIGLLVPLRMPDDQLMIGDDAAHGEEAYALWGDGEKFDATRHDLAARVGGGGMMDREGSADQRMSGMGARGVTIQL
- Km: 90.17 µM
